B1: FAM46C (parent)
chain: FDHLQNRLIATKNPEEIRGGGLLK

Variants of: B1
Experiment: protein stability index of a GFP-peptide fusion (GPS, HEK-293T) (PSI 1-6); higher = more stable
Settings: c terminus: a fixed tail appended
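Note: lentivirally expressed fusions sorted by FACS into six bins by GFP to DsRed ratio, PSI derived from sequencing read proportions per bin multiplied by bin number.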

Protein stability index of substitutions, site by site:
F1: G 3.9, T 4.28, D 5.18, I 3.5, Y 3.27, V 4.67, Q 4.74, E 4.33, W 3.76
Q5: W 1.08, S 4, M 2.92, N 3.44, K 3.67, V 3.33, P 3.63, I 3.17, C 3.96, H 3.87, L 2.17, R 2.86, A 4.57
G21: T 4.07, V 3.53, M 3.25, P 3.91, L 2.61, H 3.94, K 4.26, I 2.92, D 4, R 3.47, A 3.69, S 4.06, C 3.29
I17: K 3.39, D 4.52, F 3.46, R 3.86, C 4.18, Q 4.86, Y 3.58, W 3.44, E 4.26, T 4.01, S 4.35, M 3.82, A 4.4, N 4.27
R7: K 4.19, V 3.43, L 2.94, E 4.55, Y 2.99, M 3.54, A 4.42, F 3.82, P 4.07, H 4.35, I 3.67, C 3.37, Q 3.64, G 3.09, D 4.65
L4: G 5.22, P 4.62, V 3.54, R 4.28, F 3.87, H 4.79, Q 4.47, M 4.04, S 4.8, T 4.27, N 4.14, W 3.8
G19: Q 3.74, Y 3.25, K 4.26, N 3.79, I 3.18, R 4.27, S 3.69, M 2.61, V 3.18, F 1.73, A 3.48, H 3.99, C 3.57, D 4.6, W 1.74, P 3.29, E 4.04
G20: W 3.16, P 3.6, R 4.03, F 2.77, V 3.2, D 4.05, K 3.98, S 3.69, I 3.11, Y 2.85, N 3.74, H 3.72, A 3.44, Q 2.42, L 4.19, M 2.76, C 3.21
T11: Q 4.2, W 3.98, E 4.71, V 3.74, M 3.7, P 3.63, S 3.56, L 4.29, A 3.55, N 4.01, D 3.75, R 3.97
L23: A 3.81, H 4.73, I 4.02, D 4.65, M 4.55, E 4.17, T 4.56, Y 2.99, F 3.36, N 4.43, K 5.07, S 3.93, V 4.3, R 4.29
L22: M 4, Y 3.78, N 4.57, E 4.3, V 4.14, Q 4.06, F 2.76, I 4.01, P 4.2, C 3.78, D 4.71, T 4.34, S 4.32, G 4.02, H 4.2, K 4.46
R18: C 4.44, L 3.39, S 3.77, K 4.05, I 3.32, F 2.98, E 4.67, M 3.03, D 4.42, P 4.26, V 3.64, A 3.75, Q 4.37, T 3.2, N 3.83
